For one substance, Kd, koff and kon results are on record in patent publication US20240409617A1.

The target in this experiment is Human FcRn, biotinylated (human) (UniProt P55899).

The substance Atezolizumab (antibody) yielded a Kd of 19.7 nM, a koff of 0.00877 s⁻¹ and a kon of 445000 M⁻¹ s⁻¹.

A word on the Kd: it is a measure of binding affinity in units of concentration. In general, koff refers to the rate constant with which the complex falls apart. High values mean fast dissociation, low ones slow dissociation. Usually kon stands for the second-order rate constant of association. A low value points to slow association.
